From patent US11191841B2, “Supramolecular modification of proteins” (Massachusetts Institute of Technology, priority 2015, dated 2021)

Columns and labels:
[1] = reported previously (Shaikh et al. 2008); used for fitting; cited from earlier work
[2] = biological target: native insulin (Homo sapiens, UniProt P01308); assay: Acridine orange competitive binding assay; settings: AO 8 μM, CB[7] or PEG-T-CB[7] 6 μM, insulin 0-15 μM, in water; one-site competitive binding model; read-out: KD (binding constant toward insulin)
Procedure: To confirm binding of PEG-T-CB[7] to native insulin, a competitive binding assay was performed using acridine orange (AO) (FIG. 2D). In this assay, the fluorescent emission spectrum of AO is collected. The fluorescence intensity of AO increases when in complex with CB[7] relative to its emission when free in solution. As insulin is added, the CB[7]*AO complex dissociates as a result of stronger binding affinity of the B1 Phenylalanine residue to the CB[7], resulting in a reduction to the measured fluorescence intensity of AO.
Binding of PEG-T-CB[7] conjugates to insulin was assessed using the acridine orange dye displacement assay, in accordance with a previously described protocol. See, e.g., Chinai et al. Journal of the American Chemical Society 2011, 133(23): 8810-8813 Briefly, 6 μM of either unmodified CB[7] or the PEG-T-CB[7] conjugates and 8 μM acridine orange were combined with recombinant insulin (0, 1, 2, 4, 6, 8, 10, 12.5, 15 μM) in H2O. Samples were incubated overnight in light-free conditions and fluorescent spectra were collected on an Infinite® M1000 plate reader (Tecan Group, Ltd.), exciting at 485 nm and collecting the resulting fluorescent spectra from 495-650 nm. […]

[3] = Glucagon stability assessment (solubility, circular dichroism); assay type: physicochemical
Procedure: Human recombinant glucagon (Sigma) was dissolved at 4 mg/ml in PBS containing 1 mM HCl. This was mixed 1:1 with 1 equivalent of CB[7]-PEG10k in PBS, or in PBS alone, for a final glucagon concentration of 2 mg/ml. Vials were left to age at room temperature for various times. Circular dichroism was performed on samples without dilution, as well as on freshly dissolved glucagon, by utilizing a […] cuvette.

[4] = general statement, glucagon alone; cited from earlier work
[5] = tested on: STZ-induced diabetic mice; assay: In vivo blood glucose in STZ diabetic mice; set-up: species or system mouse; settings: insulin 1 IU/kg s.c., alone or with 5 molar equivalents host; normoglycemia <200 mg/dL; 6-hour study
Procedure: A mouse model of insulin-deficient diabetes, prepared using streptozotocin to induce pancreatic ß-cell death, was used to evaluate the function of PEG-T-CB[7] conjugates in vivo (FIG. 4A). Following the onset of diabetes, mice were fasted overnight to ensure an average starting blood glucose level of approximately 450 mg/dL. See, e.g., Like et al. Science 1976, 193(4251): 415-417. Insulin was then administered subcutaneously at a dose of 1 IU/kg in a saline vehicle. Alternatively, an identical dose of insulin was administered along with CB [7], PEG5k-T-CB[7], PEG10k-T-CB [7], or PEG30k-T-CB [7]. All insulin formulations reduced average blood glucose to a normoglycemic level (<200 mg/dL for a mouse) following a single subcutaneous administration. Animals that received either native insulin or insulin formulated with unmodified CB[7] became hyperglycemic again approximately 2 hours following administration. […]
Male C57BL/6J, age 8 weeks, were purchased the Jackson Laboratory. […] Mice were allowed to eat ad libitum and glucose levels were monitored by peripheral tail vein bleeds using a portable glucose meter (Accu-Chek Aviva, Roche) daily until unfasted glucose levels >400 mg/dL. […] Blood glucose readings were collected every 30 minutes using a handheld glucose meter for 6 hours following insulin injection.

[6] = Insulin aggregation assay (transmittance at 540 nm); assay type: physicochemical; settings: insulin 1 mg/mL, pH 7.4, 37° C., continuous agitation
Procedure: Insulin is well known to form fibrillar aggregates in physiologic conditions. To determine whether PEG-T-CB[7] can stabilize insulin and prevent its aggregation, assays were performed in physiologic salt concentrations at pH 7.4 and 37° C. with continuous agitation to determine the kinetics of insulin aggregation in a solution of 1 mg/mL protein (FIG. 3A). Specifically, transmittance was measured at 540 nm, a wavelength where both insulin and the PEG-T-CB[7] have negligible absorbance in order to detect the formation of aggregates, which scatter light, in solution over time. […] After the initial 100 h study, data were collected once daily to determine the duration of stability for each PEG-T-CB[7]/insulin formulation (FIG. 3B).
Recombinant human insulin was dissolved at 4 mg/ml in 2 mM HCl with 150 mM NaCl. […] The plate was immediately placed into an Infinite® M1000 plate reader (Tecan Group, Ltd.) and shaken continuously at 37° C. Absorbance readings at 540 nm were collected every 6 minutes for 100 hours, and absorbance values were subsequently converted to transmittance. […] Following the 100-hour kinetic study, the plate was maintained under continuous agitation at 37° C. and absorbance at 540 nm was monitored daily to approximate tA for the PEG-T-CB[7] conjugates.

cucurbit[7]uril [CB[7]]
CB[7]•AO equilibrium constant Keq [1]: 200000 M⁻¹ | Kd [2]: 2300 ± 200 nM

Glucagon: Human recombinant glucagon (Sigma)
glucagon conformation by circular dichroism after aging ([3]; aged for 24 hours at room temperature, 2 mg/ml): no appreciable glucagon in solution | glucagon solubility when dissolved alone ([3]; glucagon 2 mg/ml in PBS alone): readily precipitates from solution | typical duration of aqueous solubility of glucagon [4]: less than one hour

native insulin: Recombinant human insulin, unmodified; aged or fresh as stated
duration of normoglycemia following administration (time until hyperglycemic again) [5]: approximately 2 hours | aggregation time (tA), time after which a 10% reduction in transmittance is observed ([6]; alone or with 1 equivalent host, physiologic salt): 13.6 ± 0.2 h | insulin aggregation in 100 hours of kinetic study ([6]; 100 h): Rapid aggregation
